Changes are numbered by the printed parent chain.

Common to all, as to assay: high-throughput RNA pulldown from lysate on Ni-NTA beads; HRP: 50 mM Tris pH 8, 150 mM NaCl, 1 mM beta-mercaptoethanol, 50 ug/ml BSA, 3 ug/ml yeast RNA, 0.5% heparin; ITC and FP: Tris pH 8, 200 mM KCl, 5% glycerol; MST: 50 mM Tris pH 8, 200 mM NaCl, 1 mM DTT, BSA, heparin, 0.05% Tween 20
Settings in all cases: tags: N-terminal His-eGFP

Data set [1] has as its target T1, GFP-9S library array, motif 4 ND N98Q;D124V (synthetic construct, N98Q;D124V).
T1 chain: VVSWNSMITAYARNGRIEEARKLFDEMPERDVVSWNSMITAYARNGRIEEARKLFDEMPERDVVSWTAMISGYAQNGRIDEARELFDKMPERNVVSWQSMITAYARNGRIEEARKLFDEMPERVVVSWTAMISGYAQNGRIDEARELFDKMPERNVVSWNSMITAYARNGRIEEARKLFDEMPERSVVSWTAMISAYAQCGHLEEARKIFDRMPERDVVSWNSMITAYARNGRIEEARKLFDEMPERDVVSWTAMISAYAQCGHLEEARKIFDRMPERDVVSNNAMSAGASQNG

Data set [2] has as its target T2, GFP-9S library array, motif 4 ND D124S (synthetic construct, D124S).
T2 chain: T1 chain with Q98N, V124S

Data set [3] has as its target T3, GFP-9S library array, motif 4 ND N98S;D124F (synthetic construct, N98S;D124F).
T3 chain: T1 chain with Q98S, V124F

Data set [4] addresses T4, GFP-9S library array, motif 4 ND N98S;D124L (synthetic construct, N98S;D124L).
T4 chain: T1 chain with Q98S, V124L

Data set [5] addresses T5, GFP-9S library array, motif 4 ND N98I;D124N (synthetic construct, N98I;D124N).
T5 chain: T1 chain with Q98I, V124N

What is called Kd is the concentration at which binding is half-saturated. Read a high Kd as lower affinity. With AUUACACGUGA (ssRNA) [Cy5-rpoA], the Kd in data set [1] (label: 5' Cy5) was found to be 3530 nM; in data set [2] (label: 5' Cy5), 2.01 nM; in data set [3] (label: 5' Cy5) it was 39 nM; in data set [4] (label: 5' Cy5) it was 83.5 nM; in data set [5] (label: 5' Cy5), 96.4 nM.

AUUAAACGUGA (ssRNA) [IR-rpoA-A]: the Kd in data set [1] (label: 5' IRDye 800CW) came out at 4090 nM; in data set [2] (label: 5' IRDye 800CW), 162 nM; in data set [3] (label: 5' IRDye 800CW) it was 76.7 nM; in data set [4] (label: 5' IRDye 800CW) it was 159 nM; in data set [5] (label: 5' IRDye 800CW) it was 150 nM.

AUUAUACGUGA (ssRNA) [IR-rpoA-U]: the Kd came out at 3180 nM in data set [1] (label: 5' IRDye 800CW); 5.07 nM in data set [2] (label: 5' IRDye 800CW); 171 nM in data set [3] (label: 5' IRDye 800CW); 164 nM in data set [4] (label: 5' IRDye 800CW); 18.2 nM in data set [5] (label: 5' IRDye 800CW).

As to AUUAGACGUGA (ssRNA) [Cy5-rpoA-G], the Kd in data set [1] (label: 5' Cy5) was found to be 3040 nM; in data set [2] (label: 5' Cy5) it was 522 nM; in data set [3] (label: 5' Cy5) it was 77.7 nM; in data set [4] (label: 5' Cy5), 94 nM; in data set [5] (label: 5' Cy5), 117 nM.

For the origin of these results see paper PMC8809517, “Cofactor-independent RNA editing by a synthetic S-type PPR protein”.
